US20240059799A1 (Pfizer, published 2024)
Substitutions are numbered along the chain they refer to.

B1: TL1A-0368 (bispecific antibody)
heavy 1: QVQLVQSGAEVKKPGASVKVSCKASGYDYTYYGISWVRQAPGQGLEWMGWISTYNTGTHYAPSLQGRVTMTTDTSTSTAYMELRSLRSDDTAVYYCARESYYGSGAFRGGMDVWGQGTTVTVSSASTKGPSVFPLAPSSKSTSGGTAALGCLVKDYFPEPVTVSWNSGALTSGVHTFPAVLQSSGLYSLSSVVTVPSSSLGTQTYICNVNHKPSNTKVDKKVEPKSCDKTHTCPPCPAPEAAGAPSVFLFPPKPKDTLMISRTPEVTCVVVDVSHEDPEVKFNWYVDGVEVHNAKTKPREEQYNSTYRVVSVLTVLHQDWLNGKEYKCKVSNKALPAPIEKTISKAKGQPREPQVCTLPPSREEMTKNQVSLWCLVKGFYPSDIAVEWESNGQPENNYKTTPPVLDSDGSFFLYSKLTVDKSRWQQGNVFSCSVLHEALHSHYTQKSLSLSPGK
heavy 2: QVQLVQSGAEVKKPGASVKVSCKASGYTFTSYGISWVRQAPGQGLEWMGWISAYNGNTNYAQKLQGRVTMTTDTSTSTAYMELRSLRSDDTAVYYCARESYYGSEAFRAGMDVWGQGTTVTVSS
light: not shown
notes: not shown: human IgG1 constant region with effector-minimizing, KiH and LS mutations
B2: TL1A-0374 (bispecific antibody)
heavy 1: B1 heavy 1
heavy 2: not shown
light: not shown
notes: also called TL1A-0374 MBsAb; not shown: human IgG1 constant region with effector-minimizing, KiH and LS mutations
B3: TL1A-0371 (bispecific antibody)
heavy 1: B1 heavy 1
heavy 2: not shown
light: not shown
notes: also called TL1A-0371 MBsAb; not shown: human IgG1 constant region with effector-minimizing, KiH and LS mutations
B4: TL1A-0370 (bispecific antibody)
heavy 1: B1 heavy 1
heavy 2: B1 heavy 2 with Y101S
light: not shown
notes: also called TL1A-0370 MBsAb; not shown: human IgG1 constant region with effector-minimizing, KiH and LS mutations
B5: TL1A-0373 (bispecific antibody)
heavy 1: B1 heavy 1
heavy 2: not shown
light: not shown
notes: as for B1
B6: p40TL1A-0021 bispecific antibody (bispecific antibody)
heavy 1: EVQLVQSGAEVKKPGESLKISCKGSGYSFTTYWLGWVRQMPGKGLDWIGIMSPVDSDIRYSPSFQGQVTMSVDKSITTAYLQWNSLKASDTAMYYCARRRPGQGYFDFWGQGTLVTVSSASTKGPSVFPLAPSSKSTSGGTAALGCLVKDYFPEPVTVSWNSGALTSGVHTFPAVLQSSGLYSLSSVVTVPSSSLGTQTYICNVNHKPSNTKVDKKVEPKSCRKTHTCPPCPAPEAAGAPSVFLFPPKPKDTLMISRTPEVTCVVVDVSHEDPEVKFNWYVDGVEVHNAKTKPREEQYNSTYRVVSVLTVLHQDWLNGKEYKCKVSNKALPAPIEKTISKAKGQPREPQVYTLPPSREEMTKNQVSLTCLVKGFYPSDIAVEWESNGQPENNYKTTPPVLDSDGSFFLYSRLTVDKSRWQQGNVFSCSVLHEALHSHYTQKSLSLSPGK
light 1: not shown
heavy 2: B1 heavy 1 with D228E, C356Y, W373T, L375E
light 2: not shown
B7: p40TL1A-0032 bispecific antibody (bispecific antibody)
heavy 1: B6 heavy 1 with L130K, V187S, R223D, Y351C, T368W, R411K
light 1: DIQMTQSPSSLSASVGDRVTITCRASQGISSWLAWYQQKPEKAPKSLIYAASSLQSGVPSRFSGSGSGTDFTLTISSLQPEDFATYYCQQYNIYPYTFGQGTKLEIKRTVAAPSVFIFPPSDEQLKSGTASVSCLLNNFYPREAKVQWKVDNALQSGNSQESVTEQDSKDSTYSLDSTLTLSKADYEKHKVYACEVTHQGLSSPVTKSFNRGEC
heavy 2: B1 heavy 1 with L135E, S190G, C356Y, S361C, W373S, L375A, Y414V
light 2: not shown
B8: p40TL1A-0024 bispecific antibody (bispecific antibody, human IgG1, kappa)
heavy 1: B6 heavy 1 with R223D
light 1: not shown
heavy 2: B1 heavy 1 with C356Y, W373T, L375E
light 2: not shown
B9: [xTL1A]-0360 (antibody, human IgG1, kappa, V domains shown)
VH: not shown
VL: DIQMTQSPSSLSASVGDRVTITCRASQSVSSYLAWYQQKPGKAPKLLIYDASNRATGVPSRFSGSGSGTDFTLTISSLQPEDFATYYCQQRSNWPWTFGQGTKVEIKR
notes: bivalent disabled antibody, IgG1 effector-function-minimized/kappa

The binders below were run against T1, human serum albumin (human, UniProt P02768 25-609) (assay: direct binding ELISA on plate-coated HSA (1 ug/mL), anti-human IgG-Fc HRP, OD450).
T1 construct: also called HSA
Experimental: (§1) For the direct binding ELISA method to HSA or BSA, 96-well high binding plates (Corning, product number 3590) were coated with 1 μg/mL recombinant HSA or BSA in 100 μL/well in PBS overnight at 4° C. Plates were then blocked in PBS+0.02% casein solution and washed with PBS+0.05% Tween-20 following standard ELISA protocol. […] Plates were washed with PBS+0.05% Tween-20 following standard ELISA protocol, and goat anti-human IgG-Fc HRP conjugated secondary antibody (Pierce, #31413) diluted to 1:10,000 in assay buffer was added to plates and incubated for 1 hour at room temperature. Next, the plates were washed with PBS+0.05% Tween-20 following standard ELISA protocol, and then TMB substrate (BioFX Laboratories, catalog number TMBW-0100-01) was added to plates.
(§2) Reactions were stopped after approximately 5 minutes by adding 0.18 M ortho-phosphoric acid to each well and absorbance was read at 450 nm. […] For this method, samples diluted to 0.3 mg/mL were dispensed into the sample tray of a MicroCal VP-Capillary DSC with Autosampler (Malvern Instruments, Inc.), equilibrated for 5 minutes at 10° C. and then scanned up to 110° C. at a rate of 100° C. per/hour. A filtering period of 16 seconds was selected. Raw data was baseline corrected and the protein concentration was normalized. Origin Software 7.0 (Origin Lab Corporation, Northampton, MA) was used to fit the data to an MN2-State Model with an appropriate number of transitions.

Does B1 bind?
Result: no binding (tested: 1e-6 M)

Does B2 bind?
Result: no binding (tested: 1e-6 M)

Does B3 bind?
Result: no binding (tested: 1e-6 M)

Does B4 bind?
Result: no binding (tested: 1e-6 M)

Does B5 bind?
Result: no binding (tested: 1e-6 M)

Molecular target: T2, recombinant human TL1A (human, UniProt O95150 71-251)
T2 chain: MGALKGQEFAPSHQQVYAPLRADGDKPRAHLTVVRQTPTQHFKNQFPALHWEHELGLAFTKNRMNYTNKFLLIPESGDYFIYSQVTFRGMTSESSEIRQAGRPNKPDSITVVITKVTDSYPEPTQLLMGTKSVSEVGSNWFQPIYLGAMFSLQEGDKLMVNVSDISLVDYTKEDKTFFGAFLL
Assay: cell-based or functional assay

With B1 as the binder, how does the “NFκB Bioassay IC50” value read?
The value was 1.56 nM.

For B2, which “NFκB Bioassay IC50” value is on record?
Its value is 1.49 nM.

Which “NFκB Bioassay IC50” value does the source give for B3 here?
Its value is 1.37 nM.

With B4 as the binder, how does the “NFκB Bioassay IC50” value read?
Its value is 1.46 nM.

B5 was tested. Which “NFκB Bioassay IC50” value did it give?
The value was 1.66 nM.

What follows are binders tested against T3, bovine serum albumin (bovine, UniProt P02769 25-607) (assay: direct binding ELISA on plate-coated BSA (1 ug/mL), anti-human IgG-Fc HRP, OD450).
T3 construct: also called BSA
T3 sequence (P02769 25-607 limits assumed): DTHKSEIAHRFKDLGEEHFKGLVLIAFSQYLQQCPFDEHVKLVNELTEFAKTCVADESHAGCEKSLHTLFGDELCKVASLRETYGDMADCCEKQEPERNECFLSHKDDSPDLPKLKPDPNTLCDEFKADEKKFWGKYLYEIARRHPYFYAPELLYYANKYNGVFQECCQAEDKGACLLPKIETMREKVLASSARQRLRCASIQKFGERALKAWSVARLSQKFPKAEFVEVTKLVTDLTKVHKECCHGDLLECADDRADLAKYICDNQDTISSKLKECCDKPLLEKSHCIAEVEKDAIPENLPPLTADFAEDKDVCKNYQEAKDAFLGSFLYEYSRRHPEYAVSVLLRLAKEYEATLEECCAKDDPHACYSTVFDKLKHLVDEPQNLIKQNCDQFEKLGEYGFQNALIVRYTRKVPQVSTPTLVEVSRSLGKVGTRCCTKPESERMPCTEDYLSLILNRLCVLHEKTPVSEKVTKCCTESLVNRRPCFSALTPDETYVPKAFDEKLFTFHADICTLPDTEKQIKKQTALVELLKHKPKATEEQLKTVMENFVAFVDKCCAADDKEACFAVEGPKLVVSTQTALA
Experimental: as §1, §2

Does B1 bind?
Result: no binding (tested: 1e-6 M)

Does B2 bind?
Result: no binding (tested: 1e-6 M)

Does B3 bind?
Result: no binding (tested: 1e-6 M)

Does B4 bind?
Result: no binding (tested: 1e-6 M)

Does B5 bind?
Result: no binding (tested: 1e-6 M)

Each binder was assayed against T4, human IL-23 (human, UniProt P29460 23-328; Q9NPF7 20-189) (assay: cell-based or functional assay).
T4 sequence 1: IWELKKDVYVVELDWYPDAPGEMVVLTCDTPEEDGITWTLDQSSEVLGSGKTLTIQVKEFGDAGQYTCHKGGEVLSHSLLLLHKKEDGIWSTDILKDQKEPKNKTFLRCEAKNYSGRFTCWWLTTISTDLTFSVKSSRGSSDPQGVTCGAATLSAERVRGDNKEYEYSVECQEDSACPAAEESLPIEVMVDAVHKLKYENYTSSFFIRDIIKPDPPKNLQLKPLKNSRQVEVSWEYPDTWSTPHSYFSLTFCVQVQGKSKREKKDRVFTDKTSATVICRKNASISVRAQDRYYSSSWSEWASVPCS
T4 sequence 2: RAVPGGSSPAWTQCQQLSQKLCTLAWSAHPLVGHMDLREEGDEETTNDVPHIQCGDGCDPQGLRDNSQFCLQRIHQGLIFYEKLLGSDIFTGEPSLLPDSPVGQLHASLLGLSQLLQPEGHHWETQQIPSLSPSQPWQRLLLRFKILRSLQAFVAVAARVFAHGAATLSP

B6 was tested. Which “KIT-225 STAT3 assay IL-23, Bioactivity relative to p40-0003” value did it give?
The value was 1.4 fold.

What about the “KIT-225 STAT3 assay IL-23 IC50” value of the same binder?
Its value is 3.4 nM.

With B7 as the binder, how does the “KIT-225 STAT3 assay IL-23, Bioactivity relative to p40-0003” value read?
Its value is 2.3 fold.

And the “KIT-225 STAT3 assay IL-23 IC50” value?
Its value is 3.8 nM.

Which “KIT-225 STAT3 assay IL-23, Bioactivity relative to p40-0003” value does the source give for B8 here?
Its value is 2.2 fold.

And the “KIT-225 STAT3 assay IL-23 IC50” value?
The value was 3.6 nM.

Molecular target: T5, recombinant human TL1A (human, UniProt O95150 71-251)
T5 chain: T2 chain
Assay: cell-based or functional assay

B6 was tested. Which “NF-κB assay IC50 (TF-1 reporter cells)” value did it give?
The value was 0.0509 nM.

And the “NF-κB assay, Bioactivity relative to TL1A-0372” value?
Its value is 0.5 fold.

What does the source list for B7?
NF-κB assay IC50 (TF-1 reporter cells): 0.131 nM; NF-κB assay, Bioactivity relative to TL1A-0372: 1.3 fold

With B8 as the binder, how does the “NF-κB assay IC50 (TF-1 reporter cells)” value read?
The value was 0.106 nM.

And the “NF-κB assay, Bioactivity relative to TL1A-0372” value?
The value was 1 fold.

The binders below were run against T6, human IL-12 (human, UniProt P29460 23-328; P29459 23-219) (assay: cell-based or functional assay).
T6 sequence 1: T4 sequence 1
T6 sequence 2: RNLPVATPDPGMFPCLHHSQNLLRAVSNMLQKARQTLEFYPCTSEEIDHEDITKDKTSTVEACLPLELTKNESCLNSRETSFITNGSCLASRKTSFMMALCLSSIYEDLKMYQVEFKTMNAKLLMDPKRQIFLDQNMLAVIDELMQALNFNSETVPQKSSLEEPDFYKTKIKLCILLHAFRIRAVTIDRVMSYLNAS

Which results are given for B6?
KIT-225 STAT4 assay IL-12, Bioactivity relative to p40-0003: 0.9 fold; KIT-225 STAT4 assay IL-12 IC50: 3 nM

Which results are given for B7?
KIT-225 STAT4 assay IL-12, Bioactivity relative to p40-0003: 1.4 fold; KIT-225 STAT4 assay IL-12 IC50: 4.6 nM

Which results are given for B8?
KIT-225 STAT4 assay IL-12, Bioactivity relative to p40-0003: 1.3 fold; KIT-225 STAT4 assay IL-12 IC50: 4.3 nM

Molecular target: T2, recombinant human TL1A
Assay: SPR, recombinant human TL1A

With B1 as the binder, how does the Kd read?
The Kd was 0.242 nM.

And the koff?
The koff was 4.61e-05 s⁻¹.

What about the kon of the same binder?
The kon was 191000 M⁻¹ s⁻¹.

What does the source list for B2?
Kd: 0.268 nM; koff: 5.59e-05 s⁻¹; kon: 209000 M⁻¹ s⁻¹

What does the source list for B3?
Kd: 0.261 nM; koff: 4.36e-05 s⁻¹; kon: 168000 M⁻¹ s⁻¹

How did the Kd turn out when B4 was run?
Its Kd is 0.303 nM.

And the koff?
The koff was 5.73e-05 s⁻¹.

What about the kon of the same binder?
The kon was 190000 M⁻¹ s⁻¹.

B5 was tested. Which Kd did it give?
The Kd was 0.285 nM.

What about the koff of the same binder?
The koff was 4.95e-05 s⁻¹.

And the kon?
Its kon is 173000 M⁻¹ s⁻¹.

The binders below were run against T7, full-length human TL1A on CHO-K1 cells (human, UniProt O95150 1-251) (assay: flow cytometry on CHO-K1 cells stably expressing full-length human TL1A, PE anti-human IgG, median fluorescent intensity).
T7 construct: whole, on cells; also called cells over-expressing human TL1A
T7 sequence (looked up): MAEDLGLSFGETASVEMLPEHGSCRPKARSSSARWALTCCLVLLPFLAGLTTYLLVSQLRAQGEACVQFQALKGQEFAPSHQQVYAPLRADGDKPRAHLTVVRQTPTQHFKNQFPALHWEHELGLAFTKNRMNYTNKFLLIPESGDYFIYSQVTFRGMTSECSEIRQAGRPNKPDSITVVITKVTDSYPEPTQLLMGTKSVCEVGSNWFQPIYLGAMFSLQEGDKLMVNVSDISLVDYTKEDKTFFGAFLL
Experimental: A cell binding assay was performed to examine if the panel of [xTL1A] bivalent antibody variants could bind to human TL1A over-expressed on the cell surface. […] [xTL1A] bivalent antibody variants were incubated with cells on ice for 30-60 minutes at a concentration of either 1 μg/mL or 20 μg/mL. Cells were pelleted by centrifugation at 1500 RPM for 5 minutes at 4° C. and supernatant was discarded by aspiration. The cells were washed three times with DPBS with 4% FBS buffer as described. Cells were resuspended in 100 μL of PE-anti-human IgG (Life technologies Catalog number H10104) diluted 1:500 in DPBS with 4% FBS buffer and incubated on ice for 15 minutes. Cells were washed three times as described and resuspended in 200 μL of DPBS with 4% FBS buffer, then run on a flow cytometry instrument.

Does B9 bind?
Result: no binding (tested: 20 ug/mL)
